Experimental data: patent US20190062453A1 (Hoffmann-La Roche, published 2019)
Numbering of substitutions follows the chain as printed.

B1: DR5TAA-0052 (antibody, human IgG1, kappa, L234A L235A, V domains shown)
VH: QSVEESGGRLVTPGTPLTLTCTVSGFSISRYAMIWVRQAPGEGLEYIGFITSDSSAYYASWAKGRFTISKTSTTVDLKMTSPTTEDTATYFCARYTYSDGTDLWGPGTLVTVSS
VL: DIVMTQTPASVSEPVGGTVTIKCQASQSISTYLSWYQQKPGQPPKRLIYKASTLASGVPSRFKGSGSGTDFTLTIRDLESADAATYYCQPNSGIATYGAAFGGGTEVVVKR
notes: rabbit variable, human constant regions; also called chimeric form of DR5TAA-0011; chimeric variant
B2: DR5TAA-0067 (antibody, human IgG1, kappa, L234A L235A, V domains shown)
VH: EVQLVETGGGLIQPGGSLRLSCAASGFTVSRYAMIWVRQAPGKGLEYIGFITSDGSTYYADSAKGRFTISRDNSKNTLYLQMNSLRAEDTAVYYCARYTYSDGTDLWGRGTLVTVSS
VL: DIQMTQSPSTLSASVGDRVTITCRASQSISTYLSWYQQKPGKAPKRLIYKASSLASGVPSRFSGSGSGTEFTLTISSLQPDDAATYYCQPNSGIATYGAAFGGGTKVEIKR
notes: humanized variant of DR5TAA-0011; also called VH7/VL15
B3: DR5TAA-0074 (antibody, human IgG1, kappa, L234A L235A, V domains shown)
VH: B2 VH
VL: B2 VL with T10S, K42Q, A43P, S53T, E70D, D81E, A83F
notes: humanized variant of DR5TAA-0011; also called VH7/VL10
B4: DR5TAA-0071 (antibody, human IgG1, kappa, L234A L235A)
heavy: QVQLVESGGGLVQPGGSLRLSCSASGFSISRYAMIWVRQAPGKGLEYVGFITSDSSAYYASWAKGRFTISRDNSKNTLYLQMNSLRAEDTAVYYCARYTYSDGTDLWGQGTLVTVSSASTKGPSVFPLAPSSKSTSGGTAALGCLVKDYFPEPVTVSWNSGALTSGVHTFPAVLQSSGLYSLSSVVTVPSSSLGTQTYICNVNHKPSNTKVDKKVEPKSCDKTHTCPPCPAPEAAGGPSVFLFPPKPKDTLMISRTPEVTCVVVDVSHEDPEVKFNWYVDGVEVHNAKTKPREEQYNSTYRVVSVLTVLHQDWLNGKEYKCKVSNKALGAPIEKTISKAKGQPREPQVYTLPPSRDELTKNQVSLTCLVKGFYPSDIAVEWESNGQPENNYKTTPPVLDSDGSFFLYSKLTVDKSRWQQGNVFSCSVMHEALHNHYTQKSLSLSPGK
light: ADIQMTQSPSTLSASVGDRVTITCRASQSISTYLSWYQQKPGKAPKRLIYKASSLASGVPSRFSGSGSGTEFTLTISSLQPDDAATYYCQPNSGIATYGAAFGGGTKVEIKRTVAAPSVFIFPPSDEQLKSGTASVVCLLNNFYPREAKVQWKVDNALQSGNSQESVTEQDSKDSTYSLSSTLTLSKADYEKHKVYACEVTHQGLSSPVTKSFNRGEC
notes: humanized variant of DR5TAA-0011; also called VH17/VL15
B5: DR5TAA-0075 (antibody, human IgG1, kappa, L234A L235A, V domains shown)
VH: B2 VH
VL: B2 VL with T10S, R24Q, K42Q, A43P, S53T, E70D, D81E, A83F
notes: humanized variant of DR5TAA-0011; also called VH7/VL11
B6: 18F11_28H1 (bispecific antibody, human IgG1, kappa)
VH (DR5)-Fc part-VH (FAP)-CL chain: not shown
VL (DR5)-kappa light chain: EIVLTQSPGTLSLSPGERATLSCRASQSVSSSYLAWYQQKPGQAPRLLIYGASSRATGIPDRFSGSGSGTDFTLTISRLEPEDFAVYYCQQGQLPPITFGQGTKVEIKRTVAAPSVFIFPPSDEQLKSGTASVVCLLNNFYPREAKVQWKVDNALQSGNSQESVTEQDSKDSTYSLSSTLTLSKADYEKHKVYACEVTHQGLSSPVTKSFNRGEC
VLCH1 (FAP) chain: EIVLTQSPGTLSLSPGERATLSCRASQSVSRSYLAWYQQKPGQAPRLLIIGASTRATGIPDRFSGSGSGTDFTLTISRLEPEDFAVYYCQQGQVIPPTFGQGTKVEIKSSASTKGPSVFPLAPSSKSTSGGTAALGCLVKDYFPEPVTVSWNSGALTSGVHTFPAVLQSSGLYSLSSVVTVPSSSLGTQTYICNVNHKPSNTKVDKKVEPKSCD
notes: Printed as '18F11' on the sheet
B7: DR5TAA-0032 (bispecific antibody, human IgG1, kappa)
HC (DR5-crossed FAP): not shown
LC (DR5): AQVLTQTPSPVSAAVGGTVTINCQASQSVYNNRLAWYQQKPGQPPKLLIYLASTLASGVPSRFKGSGSGTQFTLTISDLQCDDAATYYCAGGYSGNINAFGGGTEVVVKRTVAAPSVFIFPPSDEQLKSGTASVVCLLNNFYPREAKVQWKVDNALQSGNSQESVTEQDSKDSTYSLSSTLTLSKADYEKHKVYACEVTHQGLSSPVTKSFNRGEC
Crossed LC (FAP): B6 VLCH1 (FAP) chain
notes: also called 039-28H1
B8: DR5TAA-0034 (bispecific antibody, human IgG1, kappa)
HC (DR5-crossed FAP): not shown
LC (DR5): ALVMTQTPSSTSEPVGGTVTIKCQASQSIGSSLSWYQQTPGQPPKLLIYTASSLASSVPKRFSGSRSGTQFTLTISGVQCADAATYYCLGIDDVRRDDGFAFGGGTEVVVKRTVAAPSVFIFPPSDEQLKSGTASVVCLLNNFYPREAKVQWKVDNALQSGNSQESVTEQDSKDSTYSLSSTLTLSKADYEKHKVYACEVTHQGLSSPVTKSFNRGEC
Crossed LC (FAP): B6 VLCH1 (FAP) chain
notes: also called 298-28H1
B9: DR5TAA-0036 (bispecific antibody, human IgG1, kappa)
HC (DR5-crossed FAP): not shown
LC (DR5): ALVMTQTPSSVSAAVGGTVTINCQASQNIYSNLAWFQQKPGQPPKLLIYETSKLASGVPSRFSGSGSGTEFTLTISDLECDDAATYYCQSSWHSISTDCAFGGGTEVVVKRTVAAPSVFIFPPSDEQLKSGTASVVCLLNNFYPREAKVQWKVDNALQSGNSQESVTEQDSKDSTYSLSSTLTLSKADYEKHKVYACEVTHQGLSSPVTKSFNRGEC
Crossed LC (FAP): B6 VLCH1 (FAP) chain
B10: DR5TAA-0039 (bispecific antibody, human IgG1, kappa)
VH (DR5)-Fc part-VH (FAP)-CL chain: not shown
VL (DR5)-kappa light chain: B6 VL (DR5)-kappa light chain with Q93E, L94S, I97P
VLCH1 (FAP) chain: B6 VLCH1 (FAP) chain
notes: also called DR5 (20F2)-28H1 VHCL 2 + 2
B11: DR5TAA-0037 (bispecific antibody, human IgG1, kappa)
VH (DR5)-Fc part-VH (FAP)-CL chain: not shown
VL (DR5)-kappa light chain: B6 VL (DR5)-kappa light chain with Q93S, L94N, P95Q, I97V
VLCH1 (FAP) chain: B6 VLCH1 (FAP) chain
B12: DR5TAA-0038 (bispecific antibody, human IgG1, kappa)
VH (DR5)-Fc part-VH (FAP)-CL chain: not shown
VL (DR5)-kappa light chain: B6 VL (DR5)-kappa light chain with Q93S, L94Q
VLCH1 (FAP) chain: B6 VLCH1 (FAP) chain
B13: DR5TAA-0073 (antibody, human IgG1, kappa, L234A L235A, V domains shown)
VH: QVQLVESGGGLVQPGGSLRLSCSASGFSISRYAMIWVRQAPGKGLEYVGFITSDSSAYYASWAKGRFTISRDNSKNTLYLQMNSLRAEDTAVYYCARYTYSDGTDLWGQGTLVTVSS
VL: B2 VL with T10S, S53T, E70D, D81E
notes: humanized variant of DR5TAA-0011; also called VH17/VL3
B14: DR5TAA-0068 (antibody, human IgG1, kappa, L234A L235A, V domains shown)
VH: B13 VH
VL: B2 VL with T10S, K42Q, A43P, S53T, E70D, D81E, A83F
notes: humanized variant of DR5TAA-0011; also called VH17/VL10
B15: DR5TAA-0066 (antibody, human IgG1, kappa, L234A L235A, V domains shown)
VH: B2 VH
VL: B2 VL with T10S, S53T, E70D, D81E
notes: humanized variant of DR5TAA-0011; also called VH7/VL3
B16: DR5TAA-0072 (antibody, human IgG1, kappa, L234A L235A)
heavy: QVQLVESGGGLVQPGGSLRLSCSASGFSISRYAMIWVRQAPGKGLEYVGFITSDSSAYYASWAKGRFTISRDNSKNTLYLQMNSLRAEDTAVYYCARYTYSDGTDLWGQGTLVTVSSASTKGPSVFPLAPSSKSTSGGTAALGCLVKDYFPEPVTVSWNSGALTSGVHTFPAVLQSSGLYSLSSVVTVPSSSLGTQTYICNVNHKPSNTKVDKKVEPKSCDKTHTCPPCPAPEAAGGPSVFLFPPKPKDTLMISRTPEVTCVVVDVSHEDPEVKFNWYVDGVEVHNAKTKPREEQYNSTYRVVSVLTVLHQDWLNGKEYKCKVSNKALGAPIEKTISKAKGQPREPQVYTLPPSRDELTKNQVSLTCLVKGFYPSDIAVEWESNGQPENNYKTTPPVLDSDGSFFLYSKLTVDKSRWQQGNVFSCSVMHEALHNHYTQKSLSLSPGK
light: DIQMTQSPSTLSASVGDRVTITCRASQSISTYLSWYQQKPGKAPKRLIYKASSLASGVPSRFSGSGSGTEFTLTISSLQPDDAATYYCQPNSGIATYGAAFGGGTKVEIKRTVAAPSVFIFPPSDEQLKSGTASVVCLLNNFYPREAKVQWKVDNALQSGNSQESVTEQDSKDSTYSLSSTLTLSKADYEKHKVYACEVTHQGLSSPVTKSFNRGEC
notes: humanized variant of DR5TAA-0011; also called VH17/VL2

The binders below were run against T1, human DR5 ECD-Avi-his (human, UniProt O14763 56-207) (assay: SPR (BIAcore 3000), antibody captured by anti-human Fc, monomeric DR5 injected).
T1 construct: also called recombinant human DR5 (monomeric His-Avi fusion protein); monomeric human DR5

Kd [nM]	koff [s⁻¹]	kon [M⁻¹ s⁻¹]	Binder
7	0.0024	350000	B1
20	0.0052	260000	B2
21	0.0056	270000	B3
15	0.0046	300000	B4
17	0.0056	320000	B5

The binders below were run against T2, Murine FAP ectodomain + poly-lys-tag + his6-tag (murine, UniProt P97321 27-761) (assay: SPR (Biacore), bispecific antibody bound to immobilised human DR5-Fc, recombinant murine FAP as second analyte (simultaneous binding)).
T2 construct: also called recombinant soluble murine FAP
T2 sequence (P97321 other isoform, or with tags, fused parts or gaps): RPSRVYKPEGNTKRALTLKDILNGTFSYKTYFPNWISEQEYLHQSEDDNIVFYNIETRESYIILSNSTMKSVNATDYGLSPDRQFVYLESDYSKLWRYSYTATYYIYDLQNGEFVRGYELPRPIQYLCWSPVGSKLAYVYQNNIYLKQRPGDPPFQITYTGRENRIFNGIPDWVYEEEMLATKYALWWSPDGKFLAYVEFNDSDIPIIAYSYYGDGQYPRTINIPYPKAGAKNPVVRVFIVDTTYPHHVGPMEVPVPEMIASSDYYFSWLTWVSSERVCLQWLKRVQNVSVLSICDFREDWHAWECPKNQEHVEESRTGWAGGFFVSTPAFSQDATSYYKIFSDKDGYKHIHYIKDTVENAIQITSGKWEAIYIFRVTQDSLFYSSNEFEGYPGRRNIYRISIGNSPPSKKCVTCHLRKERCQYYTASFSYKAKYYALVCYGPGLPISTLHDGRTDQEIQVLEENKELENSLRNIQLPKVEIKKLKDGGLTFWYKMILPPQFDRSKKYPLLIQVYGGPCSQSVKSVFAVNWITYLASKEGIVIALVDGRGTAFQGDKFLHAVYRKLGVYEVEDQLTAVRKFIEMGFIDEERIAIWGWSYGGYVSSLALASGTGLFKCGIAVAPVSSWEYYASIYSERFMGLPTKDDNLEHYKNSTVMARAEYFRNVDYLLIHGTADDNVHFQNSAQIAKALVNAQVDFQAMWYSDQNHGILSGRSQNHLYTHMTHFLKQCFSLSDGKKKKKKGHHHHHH

binding result	Binder
binds	B6
binds	B7
binds	B8
binds	B9
binds	B10
binds	B11
binds	B12

The binders below were run against T3, human DR5 (recombinant, fusion format not stated for the assay) (human, UniProt O14763 56-207) (assay: binding to human DR5 after stress test, pH 6.0, 2 weeks 40° C., against non-stressed initial material (defined 100%)).
T3 construct: all antigen constructs carry ECD aa 56-207; also called hu DR5; huDR5

Relative active concentration as compared to the initial state [%]	Binder
107	B2
104	B13
103	B3
103	B14
103	B4
102	B5
102	B15
105	B16

These binders were tested against T3, human DR5 (recombinant, fusion format …) (assay: binding to human DR5 after stress test, pH 7.4, 2 weeks 40° C., against non-stressed initial material (defined 100%)).

Relative active concentration as compared to the initial state [%]	Binder
107	B2
101	B13
100	B3
101	B14
98	B4
99	B5
100	B15
101	B16

These binders were tested against T4, Human FAP ectodomain + poly-lys-tag + his6-tag (human, UniProt Q12884 27-760) (assay: SPR (Biacore), bispecific antibody bound to immobilised human DR5-Fc, recombinant human FAP as second analyte (simultaneous binding)).
T4 construct: also called recombinant soluble human FAP; hFAP

binding result	Binder
binds	B6
binds	B7
binds	B8
binds	B9
binds	B10
binds	B11
binds	B12
